IC50 and EC50 data for 28 molecules are collected here from patent publication US20240116985A1, “STAPLED PEPTIDES AND METHODS THEREOF” (priority 2020, published 2024).

Starred links: 1 amine or outer side, 2 acyl side, 3 side chain; linkers in the order of their positions; H or OH if unused. Positions of bridges follow the written chain, without caps; N, C: chain ends. Non-standard residues stand in square brackets, D forms with d. Primed or numbered codes have the meaning given here. PyrS2″ = (S)-3-amino-1-((pent-4-en-1-yloxy)carbonyl)pyrrolidine-3-carboxylic acid (stapling residue), C=CCCCOC(=O)N1CC[C@@](N[*:1])(C(=O)[*:2])C1; B5(24) = 2-amino-2-(pent-4-en-1-yl)hept-6-enoic acid, 2,2-bis(4-pentenyl)glycine (stitching residue), C=CCCCC(CCCC=C)(N[*:1])C(=O)[*:2]; B5(4) = 2,2-bis(4-pentenyl)glycine = 2-amino-2-(pent-4-en-1-yl)hept-6-enoic acid (stitching residue), C=CCCCC(CCCC=C)(N[*:1])C(=O)[*:2]; B5(12) = 2-amino-2-(pent-4-en-1-yl)hept-6-enoic acid (two olefin side chains), C=CCCCC(CCCC=C)(N[*:1])C(=O)[*:2]; B5(19) = 2-amino-2-(pent-4-en-1-yl)hept-6-enoic acid (bis(4-pentenyl)glycine), C=CCCCC(CCCC=C)(N[*:1])C(=O)[*:2]; B5(3) = 2,2-bis(4-pentenyl)glycine (stitching residue), C=CCCCC(CCCC=C)(N[*:1])C(=O)[*:2]; B5 = 2-amino-2-(pent-4-en-1-yl)hept-6-enoic acid, C=CCCCC(CCCC=C)(N[*:1])C(=O)[*:2]; Phe(3-CF3) = N[C@@H](Cc1cccc(C(F)(F)F)c1)C(=O)O; Phe(4-CF3) = N[C@@H](Cc1ccc(C(F)(F)F)cc1)C(=O)O; Ala(morpholin-4-yl) = N[C@@H](CN1CCOCC1)C(=O)O; Phe(3-CONH2) = NC(=O)c1cccc(C[C@H](N)C(=O)O)c1; Phe(3-COOH) = N[C@@H](Cc1cccc(C(=O)O)c1)C(=O)O; Phe(3-Cl) = N[C@@H](Cc1cccc(Cl)c1)C(=O)O; Phe(3-OMe) = COc1cccc(C[C@H](N)C(=O)O)c1; Phe(2-Cl) = N[C@@H](Cc1ccccc1Cl)C(=O)O; Bta = N[C@@H](Cc1csc2ccccc12)C(=O)O; Lys(iPr) = CC(C)NCCCC[C@H](N)C(=O)O; αAllylPro = C=CC[C@@]1(C(=O)O)CCCN1; tBuAla = CC(C)(C)C[C@H](N)C(=O)O; 2Pal = N[C@@H](Cc1ccccn1)C(=O)O; 3Pal = N[C@@H](Cc1cccnc1)C(=O)O; 4Pal = N[C@@H](Cc1ccncc1)C(=O)O; 3Thi = N[C@@H](Cc1ccsc1)C(=O)O; Cha = N[C@@H](CC1CCCCC1)C(=O)O; S8 = C=CCCCCCC[C@](C)(N)C(=O)O; PyrS2(4) = not defined here; hSer = N[C@@H](CCO)C(=O)O; Nle = CCCC[C@H](N)C(=O)O; Aib = CC(C)(N)C(=O)O

In test [1] the target is full-length beta-Catenin (Uniprot ID P35222) (Homo sapiens (Human)) (UniProt P35222). Kind of test: fluorescence polarization competition, full-length beta-catenin, competitor 5FAM-TCF4 10-53.
Target sequence in this assay (P35222 whole entry): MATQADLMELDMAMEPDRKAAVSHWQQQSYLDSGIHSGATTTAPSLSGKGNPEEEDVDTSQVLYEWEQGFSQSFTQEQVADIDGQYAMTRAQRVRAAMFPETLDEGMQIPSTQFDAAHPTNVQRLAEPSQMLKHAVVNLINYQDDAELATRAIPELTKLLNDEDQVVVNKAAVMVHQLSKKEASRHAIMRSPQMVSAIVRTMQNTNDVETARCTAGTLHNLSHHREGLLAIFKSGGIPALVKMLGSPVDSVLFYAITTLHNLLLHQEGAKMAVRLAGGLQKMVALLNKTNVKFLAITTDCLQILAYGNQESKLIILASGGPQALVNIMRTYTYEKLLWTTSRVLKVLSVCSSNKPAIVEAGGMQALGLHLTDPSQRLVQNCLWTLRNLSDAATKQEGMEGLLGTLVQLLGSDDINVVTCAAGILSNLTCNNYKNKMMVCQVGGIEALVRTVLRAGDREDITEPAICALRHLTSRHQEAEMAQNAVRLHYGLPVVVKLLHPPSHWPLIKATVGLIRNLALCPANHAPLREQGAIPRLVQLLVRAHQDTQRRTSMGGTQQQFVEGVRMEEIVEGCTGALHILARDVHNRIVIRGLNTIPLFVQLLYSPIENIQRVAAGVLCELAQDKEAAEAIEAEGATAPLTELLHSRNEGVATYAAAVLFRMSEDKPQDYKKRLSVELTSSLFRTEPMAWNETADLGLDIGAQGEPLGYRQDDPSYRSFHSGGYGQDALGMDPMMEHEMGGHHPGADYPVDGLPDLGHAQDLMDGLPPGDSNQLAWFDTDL
For test [2] the target is unchanged. The test can be described thus: fluorescence polarization competition, 5FAM-TCF4 10-53 probe on full-length beta-catenin.
Target sequence in this assay (P35222 2-781 limits assumed): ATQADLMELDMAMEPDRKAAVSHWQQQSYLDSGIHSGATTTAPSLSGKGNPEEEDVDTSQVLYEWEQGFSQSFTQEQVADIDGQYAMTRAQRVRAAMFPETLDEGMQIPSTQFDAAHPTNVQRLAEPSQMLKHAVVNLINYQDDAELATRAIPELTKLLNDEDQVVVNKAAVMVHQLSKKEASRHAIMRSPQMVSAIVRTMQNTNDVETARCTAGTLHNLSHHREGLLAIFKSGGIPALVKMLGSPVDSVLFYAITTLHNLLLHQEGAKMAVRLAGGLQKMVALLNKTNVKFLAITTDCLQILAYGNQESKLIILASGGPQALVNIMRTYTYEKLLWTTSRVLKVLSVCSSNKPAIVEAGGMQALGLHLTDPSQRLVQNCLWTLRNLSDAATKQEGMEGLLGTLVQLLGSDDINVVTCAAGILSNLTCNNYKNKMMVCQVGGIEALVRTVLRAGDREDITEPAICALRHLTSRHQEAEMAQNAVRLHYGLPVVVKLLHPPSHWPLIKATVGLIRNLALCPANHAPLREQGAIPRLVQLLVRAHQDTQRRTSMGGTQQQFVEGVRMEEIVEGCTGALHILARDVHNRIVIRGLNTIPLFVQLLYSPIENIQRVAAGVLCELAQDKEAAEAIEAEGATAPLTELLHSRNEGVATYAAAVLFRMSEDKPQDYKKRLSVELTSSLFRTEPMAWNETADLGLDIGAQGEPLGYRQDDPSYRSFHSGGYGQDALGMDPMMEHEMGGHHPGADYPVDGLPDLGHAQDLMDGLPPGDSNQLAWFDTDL
The target is the same in test [3]. Kind of test: fluorescence polarization competition; 10 nM full-length beta-catenin with 10 nM 5FAM-labeled TCF4 residues 10-53 probe (competitor displaced).
Target sequence in this assay (P35222 2-781 limits assumed): as above
For test [4] the target is unchanged. Kind of test: fluorescence polarization competition; 10 nM full-length beta-catenin, competitor 10 nM 5FAM-TCF4(10-53).
Target sequence in this assay (P35222 whole entry): as the sequence (P35222 whole entry) above
Test [5] shares this target. Kind of test: fluorescence polarization competition; full-length beta-catenin with 5FAM-labeled TCF4 (residues 10-53) probe as competitor.
Target sequence in this assay (P35222 whole entry): as above

Ac-[αAllylPro]D[tBuAla][B5(4)]DDAAFN[PyrS2″][Phe(2-Cl)][Bta][Ala(morpholin-4-yl)]-NH2 (staple 1-4, 4-11; also: earlier eluting staple isomer) [I-1133] yielded an IC50 in test [1] of 0.005 µM. In test [2], this molecule displayed an EC50 of 0.005 µM.

B1: I-1922 (peptide)
peptide: Ac-[αAllylPro]N[Cha][B5(12)]DQ[Lys(iPr)]AF[hSer][PyrS2(4)]F[Bta][hSer]-NH2
modifications: staple 1-4, 4-11; not fully specified; printed as Ac-PL3-Asn-Cha-B5-Asp-Gln-iPrLys-Ala-Phe-Hse-PyrS2-Phe-BztA-Hse-NH2; reading uncertain
In the case of B1, the half-inhibitory concentration (IC50) in test [3] came out at 0.457 µM. This lies in the sub-micromolar range.

In turn, Ac-[αAllylPro]N[Cha][B5(19)]D[hSer][Lys(iPr)]AFN[PyrS2″]F[Bta][hSer]-NH2 (staple 1-4, 4-11) [I-1933] had an IC50 in test [3] of 0.154 µM.

As for Ac-[αAllylPro]N[Cha][B5(19)]DQ[Lys(iPr)]A[Phe(3-OMe)]N[PyrS2″]F[Bta][hSer]-NH2 (staple 1-4, 4-11) [I-1926], the IC50 in test [3] is 0.417 µM.

In test [1], Ac-[αAllylPro]D[Cha][B5(3)]DDAA[Phe(3-CF3)]S[PyrS2″]F[Bta]Q-NH2 (staple 1-4, 4-11) [I-1125] registered an IC50 of 0.016 µM. The EC50 in test [2] is 0.016 µM.

In test [3], Ac-[αAllylPro]N[Cha][B5(19)]DQ[Lys(iPr)]AFN[PyrS2″][Phe(3-Cl)][Bta][hSer]-NH2 (staple 1-4, 4-11) [I-1928] registered an IC50 of 0.887 µM.

Ac-[αAllylPro]D[tBuAla][B5(24)]DDAAFN[PyrS2″][Phe(2-Cl)][Bta][Lys(iPr)]-NH2 (staple 1-4, 4-11) [I-1130] showed an IC50 in test [1] of 0.006 µM. Further, in test [2], the EC50 was determined as 0.006 µM.

B2: I-1913 (peptide)
peptide: Ac-[αAllylPro]D[tBuAla][B5(12)]D[Phe(3-COOH)][Nle]AFL[PyrS2(4)][3Thi][Bta]F-NH2
modifications: staple 1-4, 4-11; not fully specified; printed as Ac-PL3-Asp-Npg-B5-Asp-3COOHF-nLeu-Ala-Phe-Leu-PyrS2-3Thi-BztA-Phe-NH2; reading uncertain
For B2, the half-inhibitory concentration (IC50) in test [3] was 0.119 µM.

For Ac-[αAllylPro]D[tBuAla][B5(24)]DDA[Lys(iPr)]FN[PyrS2″][Phe(2-Cl)][Bta]Q-NH2 (staple 1-4, 4-11) [I-1132], in test [1], the half-maximal inhibitory concentration (IC50) was 0.021 µM. Further, in test [2], the EC50 came to 0.021 µM.

Take Ac-[αAllylPro]D[tBuAla][B5(24)]DD[Lys(iPr)]AFN[PyrS2″][Phe(2-Cl)][Bta]Q-NH2 (staple 1-4, 4-11) [I-1131]: the half-inhibitory concentration (IC50) in test [1] is 0.007 µM. The molecule also gave an EC50 in test [2] of 0.007 µM.

B3: I-1916 (peptide)
peptide: Ac-[αAllylPro]D[tBuAla][B5(4)]D[Phe(3-COOH)]HAFL[PyrS2(4)][3Thi][Bta]A-NH2
modifications: staple 1-4, 4-11; not fully specified; printed as Ac-PL3-Asp-Npg-B5-Asp-3COOHF-His-Ala-Phe-Leu-PyrS2-3Thi-BztA-Ala-NH2; reading uncertain
B3: the 50% inhibitory concentration (IC50) in test [3] stood at 0.008 µM. This counts as single-digit nanomolar.

B4: I-1914 (peptide)
peptide: Ac-[αAllylPro]D[tBuAla][B5(12)]D[Phe(3-COOH)][Aib]AFL[PyrS2(4)][3Thi][Bta]F-NH2
modifications: staple 1-4, 4-11; not fully specified; printed as Ac-PL3-Asp-Npg-B5-Asp-3COOHF-Aib-Ala-Phe-Leu-PyrS2-3Thi-BztA-Phe-NH2; reading uncertain
B4 had an IC50 in test [3] of 0.052 µM. Against the preceding molecule, the IC50 is about 6.5-fold higher.

Ac-[αAllylPro]N[Cha][B5(19)]DQ[Lys(iPr)]AFN[PyrS2″][3Pal][Bta][hSer]-NH2 (staple 1-4, 4-11) [I-1927] had an IC50 in test [3] of 5.14 µM.

B5: I-387 (peptide)
peptide: Ac-[αAllylPro]DA[B5]DEAA[2Pal]V[S8]F[Bta]Q-NH2
modifications: staple 1-4, 4-11; not fully specified; printed as Ac-PL3-Asp-Ala-B5-Asp-Glu-Ala-Ala-2pyrA-Val-S8-Phe-BztA-Gln-NH2
Take B5: the EC50 in test [4] turned out to be 2.62 µM. In test [5], this molecule had an IC50 of 2.62 µM.

B6: I-1126 (peptide)
peptide: Ac-[αAllylPro]D[Cha][B5(3)]DDAAFS[PyrS2″]F[Bta]Q-NH2
modifications: staple 1-4, 4-11 (inferred); not fully specified (residue 9); printed as Ac-PL3-Asp-Cha-B5-Asp-Asp-Ala-Ala-4F3MeF-Ser-PyrS2-Phe-BztA-Gln-NH2
In turn, B6 registered an IC50 in test [1] of 0.032 µM. Moreover, in test [2], the EC50 stood at 0.032 µM.

B7: I-1923 (peptide)
peptide: Ac-[αAllylPro]N[Cha][B5(12)]DQ[Lys(iPr)]A[3Pal]N[PyrS2(4)]F[Bta][hSer]-NH2
modifications: staple 1-4, 4-11; not fully specified; printed as Ac-PL3-Asn-Cha-B5-Asp-Gln-iPrLys-Ala-3PyrA-Asn-PyrS2-Phe-BztA-Hse-NH2; reading uncertain
As to B7, the IC50 in test [3] turned out to be 10 µM.

As for Ac-[αAllylPro]N[Cha][B5(19)]DQ[Lys(iPr)]A[Phe(3-CONH2)]N[PyrS2″]F[Bta][hSer]-NH2 (staple 1-4, 4-11) [I-1925], the IC50 in test [3] turned out to be 0.475 µM.

Turning to Ac-[αAllylPro]DA[B5(4)]DEAAFV[S8][2Pal][Bta]Q-NH2 (staple 1-4, 4-11; also: later eluting staple isomer) [I-384], the IC50 in test [5] amounted to 0.177 µM.

B8: I-386 (peptide)
peptide: Ac-[αAllylPro]DA[B5]DEAA[2Pal]V[S8]F[Bta]Q-NH2
modifications: staple 1-4, 4-11; not fully specified; printed as Ac-PL3-Asp-Ala-B5-Asp-Glu-Ala-Ala-2pyrA-Val-S8-Phe-BztA-Gln-NH2
Regarding B8, the EC50 in test [4] was 5 µM. In addition, the IC50 in test [5] came to 5 µM.

Consider Ac-[αAllylPro]N[Cha][B5(19)]DQ[Lys(iPr)]SFN[PyrS2″]F[Bta][hSer]-NH2 (staple 1-4, 4-11) [I-1931], for which, in test [3], the IC50 amounted to 1.56 µM.

B9: I-1924 (peptide)
peptide: Ac-[αAllylPro]N[Cha][B5(12)]DQ[Lys(iPr)]A[Phe(3-Cl)]N[PyrS2(4)]F[Bta][hSer]-NH2
modifications: staple 1-4, 4-11; not fully specified; printed as Ac-PL3-Asn-Cha-B5-Asp-Gln-iPrLys-Ala-3C1F-Asn-PyrS2-Phe-BztA-Hse-NH2; reading uncertain
In test [3], B9 registered an IC50 of 1.61 µM.

As to Ac-[αAllylPro]DA[B5(4)]DEAAFV[S8][4Pal][Bta]Q-NH2 (staple 1-4, 4-11) [I-385], in test [4], the concentration giving a half-maximal response (EC50) worked out at 3.15 µM. The molecule also returned an IC50 in test [5] of 3.15 µM.

Molecule Ac-[αAllylPro]D[tBuAla][B5(4)]DDAAFN[PyrS2″][Phe(2-Cl)][Bta][Ala(morpholin-4-yl)]-NH2 (staple 1-4, 4-11; also: later eluting staple isomer) [I-1134] registered an IC50 in test [1] of 0.006 µM. For the same molecule, the EC50 in test [2] is 0.006 µM.

Turning to Ac-[αAllylPro]D[Cha][B5(24)]DDAAFS[PyrS2″][Phe(2-Cl)][Bta][dT]-NH2 (staple 1-4, 4-11) [I-1136], the IC50 in test [1] was 0.016 µM. Also, in test [2], the EC50 was found to be 0.016 µM.

In test [1], Ac-[αAllylPro]D[Cha][B5(4)]DDAAFS[PyrS2″][Phe(2-Cl)][Bta]T-NH2 (staple 1-4, 4-11) [I-1135] returned an IC50 of 0.02 µM. For the same molecule, the EC50 in test [2] turned out to be 0.02 µM.

B10: I-1918 (peptide)
peptide: Ac-[αAllylPro]D[tBuAla][B5(4)]D[Phe(3-COOH)]QAFL[PyrS2(4)][3Thi][Bta]A-NH2
modifications: staple 1-4, 4-11; not fully specified; printed as Ac-PL3-Asp-Npg-B5-Asp-3COOHF-Gln-Ala-Phe-Leu-PyrS2-3Thi-BztA-Ala-NH2; reading uncertain
B10 displayed an IC50 in test [3] of 0.005 µM. In other words, the single-digit nanomolar range.

In test [3], Ac-[αAllylPro]N[Cha][B5(19)]DQ[Lys(iPr)]AFN[PyrS2″][Phe(3-OMe)][Bta][hSer]-NH2 (staple 1-4, 4-11) [I-1930] gave an IC50 of 1.56 µM.

As to Ac-[αAllylPro]N[Cha][B5(19)]DQ[Lys(iPr)]AFN[PyrS2″][Phe(3-CONH2)][Bta][hSer]-NH2 (staple 1-4, 4-11) [I-1929], the IC50 in test [3] was determined as 0.074 µM.
